Values quoted from earlier work, collected in paper PMC11178655, “Dosimetry and pharmacokinetics of [^177Lu]Lu-satoreotide tetraxetan in patients with progressive neuroendocrine tumours” (European Journal of Nuclear Medicine and Molecular Imaging, 2024).

How the values were obtained:
[1] = in vivo; cited from earlier work
Source text: In addition, consistent with their specific binding to SSTR, both [^177Lu]Lu-satoreotide tetraxetan and [^177Lu]Lu-DOTA-TATE predominantly show uptake in tumours, followed by the kidneys, spleen, and liver.

[2] = system: patients with NETs; details: human, in vivo; cited from earlier work
Source text: In the present study, we observed tumour ADCs of 5.0 Gy/GBq after cycle 1 and 4.0 Gy/GBq after cycle 3. These tumour ADCs are consistent with previously reported findings from a direct comparison of [^177Lu]Lu-satoreotide tetraxetan and [^177Lu]Lu-DOTA-TATE in the same tumours and patients in a cross-over design, which reported median tumour dose of [^177Lu]Lu-satoreotide tetraxetan of 7.0 Gy/GBq (range: 4.2–29 Gy/GBq), 3.5 times greater than the median tumour dose of [^177Lu]Lu-DOTA-TATE [22]. However, it should be noted that median tumour dose in this pilot study was calculated from a limi ... || The median ADC of [^177Lu]Lu-satoreotide tetraxetan for the bone marrow using a blood-based approach was lower than reported in other [^177Lu]Lu-satoreotide tetraxetan studies. The result is, however, similar to the mean blood-based radiation ADCs for the bone marrow reported for [^177Lu]Lu-DOTA-TATE [32].

[^177Lu]Lu-DOTA-TATE
Mean terminal blood half-life [1]: 72 h | Blood-based bone marrow ADC [2]: ≤ 0.02 Gy/GBq | Image-based bone marrow ADC [2]: up to 0.06 Gy/GBq | Median absorbed dose to the tumour [2]: 4.6 Gy/GBq
